Holding throughout (settings): both partners purified
The target in one experiment is T1, His6-Ran (yeast (S. cerevisiae), UniProt P32835 1-219).
T1 construct: Gsp1 (yeast Ran), wild type; loaded with GTP or with GDP before the assay; the two loadings are two assays; also called His6-Gsp1 (Ran) WT; RanGTP; not shown: His6, N-terminal, kept
Nature of the experiment: pull-down; GST fusion immobilised on GSH-Sepharose, incubated with 2 µM His6-Ran loaded with GTP, 1 hr at 4°C.

In experiment [1] the target is T2, His6-Ran^QLGTP (yeast (S. cerevisiae), UniProt P32835 1-219, Gsp1Q71L).
T2 construct: Gsp1 (yeast Ran), GTP-stabilized mutant Q71L, equivalent to human RanQ69L; also called Gsp1Q71L; RanGTP; not shown: His6, N-terminal, kept
Put plainly: pull-down; GST fusion immobilised on GSH-Sepharose in PBSKMT, incubated with one purified protein (2 µM His6-Ran variant, or 0.5 µM Slx9 or Slx9-1) for 1 hr at 4°C, competing E. coli lysates present; Coomassie or Western.

The target in another experiment is Crm1-His6 (yeast (S. cerevisiae), UniProt P30822 1-1084). Put plainly: pull-down; trimeric export complex formation: GST fusion immobilised on GSH-Sepharose, incubated with 2 µM His6-Ran^QLGTP and 50 nM Crm1-His6 together; competing E. coli lysates present; Coomassie or Western.
Experiment [2] deals with T2, His6-Ran^QLGTP. The experiment is described as above.

B1: GST-Slx9 (natural protein, yeast (S. cerevisiae), UniProt P53251 1-210, looked up)
chain: MVAKKRNTLRSKVSARNSQNFGPDVANNGILDESYDIESDPRAFLHQPKETKKEKLLNRQNTFLSNLKGKSTLNDGIAANFDGISKSSIRRRKRKLREELKPRMQDLLTSLEQEKDLRGIIENSSKDMNNDDDIDMDSKIRFVDTKEMNLKKIEPGSVRIKKNQPNIRNQKGAKALAANETARFNQVLTNQDFQKNPFGALREVIKLQKQ
B1: the binding result in the experiment with His6-Ran and with His6-Ran^QLGTP [1] was “binds” in each case.

B2: GST-Ssb1C (domain or fragment, yeast (S. cerevisiae), UniProt P11484 524-613, looked up)
chain: NQAEEFKAADEAFAKKHEARQRLESYVASIEQTVTDPVLSSKLKRGSKSKIEAALSDALAALQIEDPSADELRKAEVGLKRVVTKAMSSR
As for B2, the binding result with Crm1-His6 and in the experiment with His6-Ran^QLGTP [2] was “binds” in each case.

Values taken from article PMC4402694, “A non-canonical mechanism for Crm1-export cargo complex assembly” (eLife, 2015).
